The labels stand for the following.
B1: Pdr6/Kap122 (S. cerevisiae), full length, tag removed (natural protein)
chain: MSSIHEVVALIEELYSPHPKHDVNQIQQSLQSIQKSEQGFHLANELLSDDKYSANVKYFGALTLTVQLNTRGENDYETLWNVFRSNLLYLTKFSTLYVSNPNMYGQSLIIIKKLMSNLSLIFTKINDPQLNNAGNENMIKQWNNPINTFIQLMSVQNQNINADQLLLDSINCSLTYEQLSQFVSLSQKHNELALTFTEVIVEDLTKFQTKRHSMSQIHEVVHEHLYISTMALINLNLTAQAVFNPTVFDCITAWINYISLTRSVSSSGRMDLSEIFQNLIDLMYQSTEGSDGYENAEKILTIFGNVFANDPLLMSYDLRQQIECIFLGVVRPDSGITDISNKNSWMLQYMNYLVTNDFFSELKELAICIVDFLQINTLSVCNKLFTNIQAADNGQVQDEYIQEYIKVLLQMTNFPLTPVLQEFFSVRMVDFWLDLSDAYTNLASETLRPNSIELSTQIFQQLINIYLPKISLSVKQRIIEEEGESTSVNEFEDFRNAVSDLAQSLWSILGNDNLTNVLIDGMGQMPAASDETLIIKDTDVLFRIETMCFVLNTILVDMTLSESPWIKNIVDANKFFNQNVISVFQTGFQTSASTKVSQILKLDFVRTSTTLIGTLAGYFKQEPFQLNPYVEALFQGLHTCTNFTSKNEQEKISNDKLEVMVIKTVSTLCETCREELTPYLMHFISFLNTVIMPDSNVSHFTRTKLVRSIGYVVQCQVSNGPEEQAKYILQLTNLLSGSIEHCLASSVQLQEQQDYINCLLYCISELATSLIQPTEIIENDALLQRLSEFQSFWSSDPLQIRSKIMCTIDKVLDNSIYCKNSAFVEIGCLIVGKGLNLPDGEPYFLKYNMSEVMNFVLRHVPNCELATCLPYFVYLLEKLISEFRKELTPQEFDFMFEKILLVYYDAYIINDPDLLQMTIGFVNNVLDVKPGLAIGSKHWTSFILPQFLKLIPSREKFTIVAVAKFWTKLINNKKYNQEELTTVRQQVSSIGGDLVYQIMYGLFHTQRSDLNSYTDLLRALVAKFPIEAREWLVAVLPQICNNPAGHEKFINKLLITRGSRAAGNVILQWWLDCTTLPNYQG
B2: S. cerevisiae Ubc9, full length (enzyme, UniProt P50623 1-157, looked up)
chain: MSSLCLQRLQEERKKWRKDHPFGFYAKPVKKADGSMDLQKWEAGIPGKEGTNWAGGVYPITVEYPNEYPSKPPKVKFPAGFYHPNVYPSGTICLSILNEDQDWRPAITLKQIVLGVQDLLDSPNPNSPAQEPAWRSFSRNKAEYDKKVLLQAKQYSK
notes: Ubc9, SUMO-conjugating E2 enzyme, S. cerevisiae, full length; residues 2-157 are in the model; Full length is said for the crystallised protein; also called yeast Ubc9; source: NEB Express cells, purified (Ni(II) chelate)

Common to all, as to conditions: both partners purified
Experiment [1] deals with human RanQ69L (residues 5-180), GTP-bound (human, UniProt P62826 5-180, Q69L). As to the kind of experiment: crystal structure; Pdr6•RanGTP, hexagonal crystals, 18°C, 50 mM sodium acetate pH 5.5, 220 mM MgCl2, 19% pentaerythritol propoxylate, 10% 2-Methyl-2,4-pentanediol.
Experiment [2] has as its target B1. As to the kind of experiment: crystal structure; Pdr6•Ubc9, 18°C, 50 mM sodium cacodylate pH 5.7, 20 mM MgCl2, 3-5% ethanol.
Experiment [3] concerns the target T1, H14-ZZ-bdSUMO-tagged Pdr6 (S. cerevisiae, UniProt P32767 2-1081).
T1 construct: Pdr6/Kap122, S. cerevisiae; also called tagged NTR; source: E. coli Top10 F', purified (Ni(II) chelate, imidazole elution); not shown: His14, N-terminal, kept; ZZ, N-terminal, kept; bdSUMO, N-terminal, kept
T1 sequence: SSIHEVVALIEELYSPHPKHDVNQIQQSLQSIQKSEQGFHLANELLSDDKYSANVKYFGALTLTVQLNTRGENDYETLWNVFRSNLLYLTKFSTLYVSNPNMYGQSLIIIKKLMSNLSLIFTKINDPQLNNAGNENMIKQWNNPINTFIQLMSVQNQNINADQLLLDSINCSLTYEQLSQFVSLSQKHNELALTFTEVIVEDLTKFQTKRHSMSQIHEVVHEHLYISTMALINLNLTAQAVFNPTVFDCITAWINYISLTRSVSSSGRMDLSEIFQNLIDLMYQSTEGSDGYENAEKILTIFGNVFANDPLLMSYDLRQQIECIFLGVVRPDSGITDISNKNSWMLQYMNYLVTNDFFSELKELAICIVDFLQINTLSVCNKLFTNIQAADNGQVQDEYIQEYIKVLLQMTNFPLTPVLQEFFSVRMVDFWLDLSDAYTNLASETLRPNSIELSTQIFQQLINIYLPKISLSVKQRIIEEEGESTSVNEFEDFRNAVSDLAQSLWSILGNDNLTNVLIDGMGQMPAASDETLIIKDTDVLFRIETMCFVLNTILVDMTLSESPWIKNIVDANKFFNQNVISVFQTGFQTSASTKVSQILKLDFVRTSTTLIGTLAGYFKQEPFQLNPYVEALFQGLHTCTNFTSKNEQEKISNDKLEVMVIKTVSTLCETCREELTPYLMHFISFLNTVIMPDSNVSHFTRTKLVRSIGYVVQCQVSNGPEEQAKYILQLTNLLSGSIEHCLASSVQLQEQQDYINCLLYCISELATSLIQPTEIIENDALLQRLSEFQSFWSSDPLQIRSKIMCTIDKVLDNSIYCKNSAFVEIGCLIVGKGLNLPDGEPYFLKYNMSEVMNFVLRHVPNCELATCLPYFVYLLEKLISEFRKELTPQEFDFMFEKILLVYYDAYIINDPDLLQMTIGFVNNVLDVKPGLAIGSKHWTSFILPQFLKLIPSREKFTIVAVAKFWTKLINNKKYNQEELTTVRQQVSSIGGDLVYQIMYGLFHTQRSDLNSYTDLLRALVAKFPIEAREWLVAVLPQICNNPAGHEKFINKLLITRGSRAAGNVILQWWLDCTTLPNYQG
Put plainly: pull-down; 1 µM H14-ZZ-bdSUMO-tagged NTR with 2 µM human or yeast Ubc9; retrieved via the tagged NTR by anti-Protein A beads, eluted by bdSENP1 protease, SDS-PAGE and Coomassie.

For the molecule B1, the binding result in experiment [1] is given as “binds”.
Turning to B2, the binding result in experiment [2] and in experiment [3] was “binds” each time.

The values above are taken from PMC6548137, “Structural basis for the nuclear import and export functions of the biportin Pdr6/Kap122” (The Journal of Cell Biology, 2019).
